According to article PMC4930721 (Cancer discovery, 2016):
Where no end group is shown, it is not given here. Me3 = trimethyl-lysine

Molecular target: LEDGF PWWP (residues 1-120), 15N-labeled (UniProt O75475 1-120, uniformly 15N-labeled)
Experiment: NMR titration

LEDGF PWWP (residues 1-120), 15N-labeled, sequence (O75475 1-120): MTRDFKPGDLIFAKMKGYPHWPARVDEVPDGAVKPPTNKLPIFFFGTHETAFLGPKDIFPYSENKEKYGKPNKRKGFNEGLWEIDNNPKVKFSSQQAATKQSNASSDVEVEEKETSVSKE

ATGGVK(Me3)KPHR [histone H3K36me3 peptide] was tested, and the Kd was 4.4 mM.
